Here are results for seven molecules from patent US20090304651A1 (published 2009).

The target of assay [1] is T1, recombinant human IGF-II (Insulin-like Growth Factor II) (human, UniProt P01344 25-91, biotinylated (Biotinyl-IGF-II, GroPep) where immobilised in SPR, site not stated; not biotinylated in ITC and as SPR analyte).
T1 construct: also called IGF2; IGF-2
The experiment in a line: SPR, steady-state KD relative to wild type. The procedure:
[…]. Values are the mean±S.E.M. of three separate experiments.
(§1) Kinetic analysis by Surface Plasmon Resonance (SPR) was conducted on a BIAcore 3000 biosensor (BIAcore, Uppsala, Sweden) at 25° C. in HBS-EP (10 mM HEPES, pH 7.4, 150 mM NaCl, 3 mM EDTA, 0.005% surfactant P20) at a flow rate of 40 μl/min. […] Kinetic experiments consisted of a two minute injection of analyte followed by a 100 s dissociation phase in running buffer, after which the binding surface was regenerated with a 2 minute injection of 2 M MgCl₂. A blank flow cell was used for in-line reference subtraction of changes due to differences in refractive index of running buffer versus sample and a buffer-only injection was used to subtract instrument noise and drift. Injections were performed in duplicate for each concentration and in a randomised order. Kinetic parameters were determined by global fitting of sensorgrams to a two-state (conformational change) binding model using BIAevaluation software version 4.0.1. In all cases the minor component made an insignificant contribution to the overall affinity and as such only the kinetic parameters of the major binding component were used. For each interaction the dissociation affinity constant (KD) was also calculated by fitting of the response of each concentration at equilibrium to a steady-state affinity model using BIAevaluation. In order to investigate the influence of ionic strength, kinetic experiments were conducted in HBS-EP running buffers containing the desired NaCl concentration. In each case, analyte samples were made up in the appropriate running buffer prior to injection.
Following purification, the binding of each mutant construct to IGF2 was assessed by SPR and compared to the wild type domain 11.
For orientation: SPR reads the build-up and loss of mass on a sensor chip optically.

Assay [2] deals with T1, recombinant human IGF-II (Insulin-like …). The assay is described as follows: SPR, IGF-II immobilised, kinetic fit. The procedure:
as §1
(§2) Following purification, the binding of each mutant construct to IGF2 was assessed by SPR and compared to the wild type domain 11. Sensorgrams were generated using biotinylated IGF2 immobilised to the cell surface and mutant domain 11 proteins as the free analyte (FIG. 4).

Assay [3] has the same target. The experiment in a line: SPR, IGF-II immobilised, steady state. The procedure: as §1, §2
For assay [4] the target is unchanged. The assay is described as follows: SPR (Biacore).
The target is the same in assay [5]. The assay is described as follows: ITC, IGF-II titrated into domain 11. The procedure:
Calorimetric measurements were performed using a VP-ITC microcalorimeter (MicroCal). All solutions were thoroughly degassed before use by stirring under vacuum. […] The sample cell contained either wild type domain 11 (7 uM) or the E1544A mutant (8 μM), also in HBS-E buffer. To correct for the heat effects of dilution and mixing, reaction heats obtained from a control experiment, in which IGF2 was injected into HBS-E, were subtracted. Calorimetric data were analysed using MicroCal ORIGIN software (version 5.0) supplied with the instrument. Thermodynamic parameters were derived by fitting the binding isotherms to a single-site binding model. Values for dissociation affinity constants (KD) were determined from duplicate experiments.
In order to validate the SPR sensorgram data, ITC was used to assess the binding affinity between domain 11 and IGF-II. The affinity of the E1544A mutant was also assessed by ITC in order to confirm whether use of a second technique agreed as to the apparent increase in affinity (FIG. 6 and Table 6). Titrations were performed using 17×15 μl injections of 40 μM IGF-II (after an initial 7.51 injection) into the reaction cell containing wild type domain 11 or the E1544A mutant. […] The two fold differences may be simply accounted for by the fidelity of both techniques.

T1 sequence (P01344 25-91 limits assumed): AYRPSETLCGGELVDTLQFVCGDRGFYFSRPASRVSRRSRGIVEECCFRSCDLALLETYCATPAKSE

B1: IGF2R domain 11 G1619R (amino acids 1511-1650, C-terminal His6 tag, from Pichia pastoris) (receptor)
chain: NEHDDCQVTNPSTGHLFDLSSLSGRAGFTAAYSEKGLVYMSICGENENCPPGVGACFGQTRISVGKANKRLRYVDQVLQLVYKDGSPCPSKSGLSYKSVISFVCRPEARPTNRPMLISLDKQTCTLFFSWHTPLACEQATHHHHHH
notes: also called polymorphism G1619R
With B1, the “Relative Affinity” value in assay [1] is 0.9 fold (wild type = 1.00).

B2: IGF2R domain 11 T1570A (amino acids 1511-1650, C-terminal His6 tag, from Pichia pastoris) (receptor)
chain: NEHDDCQVTNPSTGHLFDLSSLSGRAGFTAAYSEKGLVYMSICGENENCPPGVGACFGQARISVGKANKRLRYVDQVLQLVYKDGSPCPSKSGLSYKSVISFVCRPEAGPTNRPMLISLDKQTCTLFFSWHTPLACEQATHHHHHH
B2: in assay [2], the Kd (usually the concentration at which binding is half-saturated) was determined as 954 nM, the koff (usually a measure of how fast the partners let go of each other) was found to be 0.281 s⁻¹ and the kon (usually a measure of how fast the partners come together) turned out to be 295000 M⁻¹ s⁻¹. Besides, the Kd in assay [3] amounted to 930 nM. Moreover, in assay [1], the “Relative Affinity” value is 0.11 fold (wild type = 1.00).

B3: IGF2R domain 11 Q1569A (amino acids 1511-1650, C-terminal His6 tag, from Pichia pastoris) (receptor)
chain: NEHDDCQVTNPSTGHLFDLSSLSGRAGFTAAYSEKGLVYMSICGENENCPPGVGACFGATRISVGKANKRLRYVDQVLQLVYKDGSPCPSKSGLSYKSVISFVCRPEAGPTNRPMLISLDKQTCTLFFSWHTPLACEQATHHHHHH
Consider B3, for which the Kd is 130 nM in assay [2], 130 nM in assay [4], 130 nM in assay [3] and 209 nM in assay [5]. Moreover, in assay [2], the off-rate (koff) stood at 0.069 s⁻¹. In assay [2], the kon was 529000 M⁻¹ s⁻¹. In addition, in assay [1], the “Relative Affinity” value was 0.8 fold (wild type = 1.00).

B4: IGF2R domain 11 S1596A (amino acids 1511-1650, C-terminal His6 tag, from Pichia pastoris) (receptor)
chain: NEHDDCQVTNPSTGHLFDLSSLSGRAGFTAAYSEKGLVYMSICGENENCPPGVGACFGQTRISVGKANKRLRYVDQVLQLVYKDGAPCPSKSGLSYKSVISFVCRPEAGPTNRPMLISLDKQTCTLFFSWHTPLACEQATHHHHHH
For the molecule B4, the Kd came out at 179 nM in assay [2], 170 nM in assay [4], 170 nM in assay [3] and 324 nM in assay [5]. The koff in assay [2] was found to be 0.079 s⁻¹. Also, in assay [2], the kon stood at 441000 M⁻¹ s⁻¹. The “Relative Affinity” value in assay [1] is 0.61 fold (wild type = 1.00).

B5: IGF2R domain 11 Y1542A (amino acids 1511-1650, C-terminal His6 tag, from Pichia pastoris) (receptor)
chain: NEHDDCQVTNPSTGHLFDLSSLSGRAGFTAAASEKGLVYMSICGENENCPPGVGACFGQTRISVGKANKRLRYVDQVLQLVYKDGSPCPSKSGLSYKSVISFVCRPEAGPTNRPMLISLDKQTCTLFFSWHTPLACEQATHHHHHH
In the case of B5, in assay [2], the Kd was 639 nM, the off-rate (koff) amounted to 0.169 s⁻¹ and the kon was 265000 M⁻¹ s⁻¹. Moreover, the Kd in assay [3] was 633 nM. The “Relative Affinity” value in assay [1] was 0.16 fold (wild type = 1.00).

B6: IGF2R domain 11 S1543A (amino acids 1511-1650, C-terminal His6 tag, from Pichia pastoris) (receptor)
chain: NEHDDCQVTNPSTGHLFDLSSLSGRAGFTAAYAEKGLVYMSICGENENCPPGVGACFGQTRISVGKANKRLRYVDQVLQLVYKDGSPCPSKSGLSYKSVISFVCRPEAGPTNRPMLISLDKQTCTLFFSWHTPLACEQATHHHHHH
For B6, in assay [2], the Kd came out at 260 nM, the koff is 0.096 s⁻¹ and the kon stood at 369000 M⁻¹ s⁻¹. The Kd in assay [3] was 262 nM. In addition, the “Relative Affinity” value in assay [1] was 0.39 fold (wild type = 1.00).

B7: IGF2R domain 11 K1545A (amino acids 1511-1650, C-terminal His6 tag, from Pichia pastoris) (receptor)
chain: NEHDDCQVTNPSTGHLFDLSSLSGRAGFTAAYSEAGLVYMSICGENENCPPGVGACFGQTRISVGKANKRLRYVDQVLQLVYKDGSPCPSKSGLSYKSVISFVCRPEAGPTNRPMLISLDKQTCTLFFSWHTPLACEQATHHHHHH
As for B7, in assay [2], the Kd stood at 287 nM, the off-rate constant (koff) stood at 0.078 s⁻¹ and the kon was found to be 273000 M⁻¹ s⁻¹. Besides, the dissociation constant Kd in assay [3] stood at 289 nM. The “Relative Affinity” value in assay [1] is 0.36 fold (wild type = 1.00).
